Data as given in US20090227507A1, “Angiotensin (1-7) Dosage Forms and Uses Thereof” (UNIVERSITY OF SOUTHERN CALIFORNIA, priority 2008, published 2009).

Experiment: Hematology profile (CBC with differential, platelet count) in healthy men;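 as to Platelet Count, Median Change from Baseline: Thousands of platelets per mm³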;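 as to Platelet Count, Median: Thousands of platelets per mm³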
Type: in vivo, human
Conditions: for number of various white blood cell types in peripheral blood above baseline levels: human administration
Description: Pharmacological Effect: The following evaluations (under efficacy and safety in the protocol) were performed: • Effects on the number of mature blood cells: • 1. CBC (with differential), platelet count, reticulocyte count. • Effects on early hematopoietic progenitor cells and mature lymphocyte subsets in the periphery: • 1. Flow cytometry to evaluate frequency of peripheral blood progenitor cells (eg, CD34^+) and lymphocyte subsets (eg, CD3, CD4, CD8) in peripheral blood. • 2. Collection of blood for later possible culture for progenitor cells (eg, colony forming units-granulocyte/macrophage [CFU-GM]) to evaluate potential effects on CD34^+ hematopoietic progenitor cells in peripheral blood. • 3.
The effect of USB003 on the number of mature blood cells was assessed by the complete blood count with differential, platelet and reticulocyte counts. The effects on early hematopoietic progenitor cells and mature lymphocyte subsets in the periphery were assessed by flow cytometry. In addition, blood was collected and processed to enable culture of progenitors at a later time.
Red blood cell (RBC) count, RBC indices, white blood cell count (WBC) with differential, reticulocyte count, platelet count, hemoglobin (Hb), hematocrit (Hct), plasma hemoglobin, peripheral flow cytometry, including CD34^+, flow cytometry for enumeration of CD3, CD4, and CD8 lymphocytes, and culture for progenitor cells in peripheral blood including colony-forming units-granulocyte/macrophage (CFU-GM).

[1] = 300 μg/kg, N = 8, baseline to Day 8
[2] = 300 μg/kg, N = 8, baseline to Day 20
[3] = 300 μg/kg, Study Termination Visit Day 19
[4] = 300 μg/kg, repeat test 10 days later
[5] = Subject 042, 300 μg/kg, Day 29 U (unscheduled)

Substance: Asp-Arg-Val-Tyr-Ile-His-Pro [USB003]
- Eosinophils shift L-N, number of subjects [1]: — (“—” = 0)
- Eosinophils shift N-H, number of subjects [1]: — (“—” = 0)
- Eosinophils shift N-L, number of subjects [1]: — (“—” = 0)
- Hematocrit shift H-N, number of subjects [1]: — (“—” = 0)
- Hematocrit shift L-N, number of subjects [1]: — (“—” = 0)
- Hematocrit shift N-H, number of subjects [1]: — (“—” = 0)
- Hematocrit shift N-L, number of subjects [1]: 2
- Hemoglobin shift H-N, number of subjects [1]: — (“—” = 0)
- Hemoglobin shift L-N, number of subjects [1]: — (“—” = 0)
- Hemoglobin shift N-H, number of subjects [1]: — (“—” = 0)
- Hemoglobin shift N-L, number of subjects [1]: 2
- Lymphocytes shift H-N, number of subjects [1]: — (“—” = 0)
- Lymphocytes shift L-N, number of subjects [1]: — (“—” = 0)
- Lymphocytes shift N-H, number of subjects [1]: — (“—” = 0)
- Lymphocytes shift N-L, number of subjects [1]: — (“—” = 0)
- Plasma Hemoglobin shift H-N, number of subjects [1]: — (“—” = 0)
- Plasma Hemoglobin shift L-N, number of subjects [1]: — (“—” = 0)
- Plasma Hemoglobin shift N-H, number of subjects [1]: — (“—” = 0)
- Plasma Hemoglobin shift N-L, number of subjects [1]: — (“—” = 0)
- Platelet Count shift H-N, number of subjects [1]: — (“—” = 0)
- Platelet Count shift L-N, number of subjects [1]: 1
- Platelet Count shift N-H, number of subjects [1]: — (“—” = 0)
- Platelet Count shift N-L, number of subjects [1]: — (“—” = 0)
- RBC shift H-N, number of subjects [1]: — (“—” = 0)
- RBC shift L-N, number of subjects [1]: — (“—” = 0)
- RBC shift N-H, number of subjects [1]: — (“—” = 0)
- RBC shift N-L, number of subjects [1]: 1
- Segmented Neutrophils shift H-N, number of subjects [1]: — (“—” = 0)
- Segmented Neutrophils shift L-N, number of subjects [1]: — (“—” = 0)
- Segmented Neutrophils shift N-H, number of subjects [1]: — (“—” = 0)
- Segmented Neutrophils shift N-L, number of subjects [1]: — (“—” = 0)
- Absolute Eosinophils shift H-N, number of subjects [2]: — (“—” = 0)
- Absolute Eosinophils shift L-N, number of subjects [2]: — (“—” = 0)
- Absolute Eosinophils shift N-H, number of subjects [2]: — (“—” = 0)
- Absolute Eosinophils shift N-L, number of subjects [2]: — (“—” = 0)
- Absolute Neutrophils shift H-N, number of subjects [2]: — (“—” = 0)
- Absolute Neutrophils shift L-N, number of subjects [2]: — (“—” = 0)
- Absolute Neutrophils shift N-H, number of subjects [2]: 1
- Absolute Neutrophils shift N-L, number of subjects [2]: — (“—” = 0)
- Absolute Reticulocytes shift H-N, number of subjects [2]: — (“—” = 0)
- Absolute Reticulocytes shift L-N, number of subjects [2]: — (“—” = 0)
- Absolute Reticulocytes shift N-H, number of subjects [2]: — (“—” = 0)
- Absolute Reticulocytes shift N-L, number of subjects [2]: — (“—” = 0)
- Eosinophils shift H-N, number of subjects [2]: 1
- Eosinophils shift L-N, number of subjects [2]: — (“—” = 0)
- Eosinophils shift N-H, number of subjects [2]: 2
- Eosinophils shift N-L, number of subjects [2]: — (“—” = 0)
- Hematocrit shift H-N, number of subjects [2]: — (“—” = 0)
- Hematocrit shift L-N, number of subjects [2]: — (“—” = 0)
- Hematocrit shift N-H, number of subjects [2]: — (“—” = 0)
- Hematocrit shift N-L, number of subjects [2]: 4
- Hemoglobin shift H-N, number of subjects [2]: — (“—” = 0)
- Hemoglobin shift L-N, number of subjects [2]: — (“—” = 0)
- Hemoglobin shift N-H, number of subjects [2]: — (“—” = 0)
- Hemoglobin shift N-L, number of subjects [2]: 3
- Lymphocytes shift H-N, number of subjects [2]: 1
- Lymphocytes shift L-N, number of subjects [2]: — (“—” = 0)
- Lymphocytes shift N-H, number of subjects [2]: — (“—” = 0)
- Lymphocytes shift N-L, number of subjects [2]: — (“—” = 0)
- Monocytes shift H-N, number of subjects [2]: — (“—” = 0)
- Monocytes shift L-N, number of subjects [2]: — (“—” = 0)
- Monocytes shift N-H, number of subjects [2]: — (“—” = 0)
- Monocytes shift N-L, number of subjects [2]: — (“—” = 0)
- Plasma Hemoglobin shift H-N, number of subjects [2]: — (“—” = 0)
- Plasma Hemoglobin shift L-N, number of subjects [2]: — (“—” = 0)
- Plasma Hemoglobin shift N-H, number of subjects [2]: 1
- Plasma Hemoglobin shift N-L, number of subjects [2]: — (“—” = 0)
- Platelet Count shift H-N, number of subjects [2]: — (“—” = 0)
- Platelet Count shift L-N, number of subjects [2]: 1
- Platelet Count shift N-H, number of subjects [2]: — (“—” = 0)
- Platelet Count shift N-L, number of subjects [2]: — (“—” = 0)
- RBC shift H-N, number of subjects [2]: — (“—” = 0)
- RBC shift L-N, number of subjects [2]: — (“—” = 0)
- RBC shift N-H, number of subjects [2]: — (“—” = 0)
- RBC shift N-L, number of subjects [2]: 2
- RDW shift H-N, number of subjects [2]: — (“—” = 0)
- RDW shift L-N, number of subjects [2]: — (“—” = 0)
- RDW shift N-H, number of subjects [2]: — (“—” = 0)
- RDW shift N-L, number of subjects [2]: — (“—” = 0)
- Segmented Neutrophils shift H-N, number of subjects [2]: — (“—” = 0)
- Segmented Neutrophils shift L-N, number of subjects [2]: — (“—” = 0)
- Segmented Neutrophils shift N-H, number of subjects [2]: 2
- Segmented Neutrophils shift N-L, number of subjects [2]: — (“—” = 0)
- WBC shift H-N, number of subjects [2]: — (“—” = 0)
- WBC shift L-N, number of subjects [2]: — (“—” = 0)
- WBC shift N-H, number of subjects [2]: 1
- WBC shift N-L, number of subjects [2]: — (“—” = 0)
- Absolute Neutrophils, Median (300 μg/kg, Baseline): 2.85 thousands/mm^3
- Hematocrit, Median (300 μg/kg, Baseline): 45.25%
- Hemoglobin, Median (300 μg/kg, Baseline): 15.60 g/dL
- Lymphocytes, Median (300 μg/kg, Baseline): 33.60%
- Platelet Count, Median (300 μg/kg, Baseline): 216.0 thousands/mm^3
- WBC, Median (300 μg/kg, Baseline): 5.15 thousands/mm^3
- Absolute Neutrophils, Median (300 μg/kg, Day 8): 2.95 thousands/mm^3
- Absolute Neutrophils, Median Change from Baseline (300 μg/kg, Day 8): −0.10 thousands/mm^3
- Hematocrit, Median (300 μg/kg, Day 8): 42.30%
- Hematocrit, Median Change from Baseline (300 μg/kg, Day 8): −2.10%
- Hemoglobin, Median (300 μg/kg, Day 8): 14.40 g/dL
- Hemoglobin, Median Change from Baseline (300 μg/kg, Day 8): -1.15 g/dL
- Lymphocytes, Median (300 μg/kg, Day 8): 34.50%
- Lymphocytes, Median Change from Baseline (300 μg/kg, Day 8): 1.00%
- Platelet Count, Median (300 μg/kg, Day 8): 243.0 thousands/mm^3
- Platelet Count, Median Change from Baseline (300 μg/kg, Day 8): 22.5 thousands/mm^3
- WBC, Median (300 μg/kg, Day 8): 5.65 thousands/mm^3
- WBC, Median Change from Baseline (300 μg/kg, Day 8): −0.30 thousands/mm^3
- Absolute Neutrophils, Median (300 μg/kg, Day 20): 3.80 thousands/mm^3
- Absolute Neutrophils, Median Change from Baseline (300 μg/kg, Day 20): 0.75 thousands/mm^3
- Hematocrit, Median (300 μg/kg, Day 20): 40.45%
- Hematocrit, Median Change from Baseline (300 μg/kg, Day 20): −3.45%
- Hemoglobin, Median (300 μg/kg, Day 20): 14.0 g/dL
- Hemoglobin, Median Change from Baseline (300 μg/kg, Day 20): -1.30 g/dL
- Lymphocytes, Median (300 μg/kg, Day 20): 29.75%
- Lymphocytes, Median Change from Baseline (300 μg/kg, Day 20): −3.90%
- Platelet Count, Median (300 μg/kg, Day 20): 243.5 thousands/mm^3
- Platelet Count, Median Change from Baseline (300 μg/kg, Day 20): 14 thousands/mm^3
- WBC, Median (300 μg/kg, Day 20): 6.55 thousands/mm^3
- WBC, Median Change from Baseline (300 μg/kg, Day 20): 1.30 thousands/mm^3
- WBC value, Subject 042 [3]: 13,400 cells/mm^3
- segmented neutrophils, Subject 042 [3]: 84.9%
- WBC count, Subject 042 [4]: 8,900 cells/mm^3
- segmented neutrophils, Subject 042 [4]: 73.5%
- total WBC and neutrophil concentrations (200 and 300 μg/kg SC): increases
- WBC Significance (Subject 027, 200 μg/kg, Day 11): CS AE
- WBC Value (Subject 027, 200 μg/kg, Day 11): 12.7 10^3/mm³
- WBC High/Low Normal/Abnormal (Subject 027, 200 μg/kg, Day 14): N
- WBC Value (Subject 027, 200 μg/kg, Day 14): 7.3 10^3/mm³
- Segmented Neutrophils Significance (Subject 042, 300 μg/kg, Day 19): CS AE
- Segmented Neutrophils Value (Subject 042, 300 μg/kg, Day 19): 84.9%
- WBC Significance (Subject 042, 300 μg/kg, Day 19): CS AE
- WBC Value (Subject 042, 300 μg/kg, Day 19): 13.4 10^3/mm³
- Segmented Neutrophils Significance [5]: NCS
- Segmented Neutrophils Value [5]: 73.5%
- WBC High/Low Normal/Abnormal [5]: N
- WBC Value [5]: 8.9 10^3/mm³
- peripheral blood concentrations of WBC, neutrophils, CD3, CD34+, CD4 and CD8 (during the administration of USB003): elevations
- time for all hematological parameters to return to baseline (following discontinuation of USB003 administration): ≤ 12 days
- number of various white blood cell types in peripheral blood above baseline levels (doses of 300 μg/kg or more): increasing the number of various white blood cell types
- number of various white blood cell types in peripheral blood above baseline levels (lower doses (200 μg/kg)): did not provide such an increase over baseline
